Laboratory results as given in patent US20250092135A1 (NANJING LEADS BIOLABS, published 2025).

What was measured:
[1] = biological target: T1, Human CD3D & CD3E heterodimer protein (human, UniProt P07766 23-126; P04234 22-105); assay: BLI (ForteBio Octet RED96), antibody on AHC sensor, 100 nM analyte, 1:1 model
T1 construct: Bought recombinant heterodimer; also called human CD3 protein (Sino Biological, Cat #CT038-H2508H)
Excerpt: (§1) In this experiment, the binding affinity of the bispecific antibody [0913] for human CD3D & CD3E heterodimer protein (Sino Biological, Cat #CT038-H2508H) and monkey CD3D & CD3E heterodimer protein (Acro biosystems, Cat #CDD-C52W4) was detected using ForteBio Octet RED96 according to the manufacturer's instructions.
(§2) Briefly, an AHC sensor (ForteBio, Cat #18-5060) was placed in a running buffer (1×PBS, Hyclone, Cat #SH30256.01, containing 0.02% Tween 20, pH 7.0) and pre-equilibrated at room temperature for 10 min.
(§3) The experimental data were fitted and calculated using a Fortebio Data Analysis software 1:1 binding model.

[2] = biological target: T2, Cynomolgus monkey CD3D & CD3E heterodimer protein (cynomolgus monkey, UniProt Q95LI5 22-117; Q95LI8 22-105); assay: as above
T2 construct: same catalogue number; also called monkey CD3 protein (Acro biosystems, Cat #CDD-C52W4)
T2 sequence (Q95LI5 22-117 limits assumed, chain 1 of 2): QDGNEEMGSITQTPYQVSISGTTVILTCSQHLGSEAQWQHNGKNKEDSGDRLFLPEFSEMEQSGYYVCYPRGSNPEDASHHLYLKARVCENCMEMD
T2 sequence (Q95LI8 22-105 limits assumed, chain 2 of 2): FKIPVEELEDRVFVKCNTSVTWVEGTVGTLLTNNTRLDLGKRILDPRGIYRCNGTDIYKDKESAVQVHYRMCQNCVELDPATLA
Excerpt: as §1, §2, §3

[3] = biological target: T3, cynomolgus monkey GPRC5D protein (cynomolgus monkey, UniProt Q9NZD1 1-343 (human entry)); assay: flow cytometry, HEK293T-CynoGPRC5D cells (sheet: 293T-cynoGPRC5D), PE anti-human IgG Fc secondary, MFI
T3 construct: also called CynoGPRC5D; on HEK293T-CynoGPRC5D cells
T3 chain: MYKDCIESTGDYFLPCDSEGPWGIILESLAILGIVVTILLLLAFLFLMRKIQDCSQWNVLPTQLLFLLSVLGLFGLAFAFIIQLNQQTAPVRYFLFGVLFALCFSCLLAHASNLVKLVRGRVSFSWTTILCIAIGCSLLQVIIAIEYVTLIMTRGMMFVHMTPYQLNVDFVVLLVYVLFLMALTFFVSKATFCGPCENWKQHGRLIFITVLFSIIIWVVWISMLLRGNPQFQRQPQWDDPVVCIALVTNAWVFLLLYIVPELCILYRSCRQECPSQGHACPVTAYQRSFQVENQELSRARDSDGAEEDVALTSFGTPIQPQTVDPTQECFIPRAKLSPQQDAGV
Procedure: The HEK293T-CynoGPRC5D cell line shown in Table 2 was subjected to enzymatic digestion to obtain a single cell suspension. The single cell suspension was centrifuged at room temperature at 400×g, and then the medium was discarded. The cell pellet was washed once with PBS and then resuspended in the serially diluted bifunctional antibodies shown in Table 5 (at an initial concentration of 115.6 nM, 4-fold gradient dilution, 8 concentration points in total), and the cells were incubated at 4° C. for 30 min. The cells were washed once with PBS, and then fluorescent secondary antibody R-PE-conjugated AffiniPure Goat Anti-Human IgG, Fcγ Fragment Specific (Jackson ImmunoResearch, Cat #109-116-098) diluted in a 1:200 ratio was added. The cells were incubated in the dark at 4° C. for 30 min. The cells were washed twice with PBS and then resuspended, and finally, two-channel fluorescence signals were detected using a Beckman Cytoflex flow cytometer.

human GPRC5D protein = biological target: T4, human GPRC5D protein (human, UniProt Q9NZD1 1-345); assay: flow cytometry, HEK293T cells stably expressing human GPRC5D (sheet: 293T-huGPRC5D), PE anti-human IgG Fc secondary, MFI
T4 construct: NCI-H929 cells express it endogenously in the functional assays; also called HuGPRC5D; huGPRC5D
T4 sequence (Q9NZD1 whole entry): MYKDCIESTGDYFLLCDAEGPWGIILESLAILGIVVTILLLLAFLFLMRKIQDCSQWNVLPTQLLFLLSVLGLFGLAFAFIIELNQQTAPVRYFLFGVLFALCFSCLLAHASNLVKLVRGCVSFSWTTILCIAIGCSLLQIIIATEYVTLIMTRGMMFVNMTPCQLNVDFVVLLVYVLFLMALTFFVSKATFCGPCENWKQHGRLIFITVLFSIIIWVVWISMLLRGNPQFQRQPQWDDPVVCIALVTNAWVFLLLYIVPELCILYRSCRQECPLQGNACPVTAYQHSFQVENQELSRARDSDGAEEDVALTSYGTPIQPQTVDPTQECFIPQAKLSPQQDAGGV
Procedure: (2) Whether the anti-CD3/anti-GPRC5D bispecific antibodies in the present invention could bind to HEK293T cells stably expressing the human GPRC5D protein was determined by cell binding experiments. […] The plate was centrifuged at room temperature at 400×g, and then the supernatant was discarded. The cells were washed twice with PBS and centrifuged. The supernatant was discarded. The cell pellet was resuspended in fluorescent secondary antibody R-PE-conjugated AffiniPure Goat Anti-Human IgG, Fcγ Fragment Specific (Jackson ImmunoResearch, Cat #109-116-098) diluted in a 1:200 ratio. The cells were incubated in the dark at 4° C. for 30 min. The cells were washed twice with PBS, and 100 μL of PBS was added to each well to resuspend the cells. Fluorescence signals were detected using a Beckman Cytoflex flow cytometer.

T1 sequence (P07766 23-126 limits assumed, chain 1 of 2): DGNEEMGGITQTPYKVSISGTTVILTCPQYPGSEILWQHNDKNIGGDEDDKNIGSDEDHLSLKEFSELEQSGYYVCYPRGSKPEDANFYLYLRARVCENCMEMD
T1 sequence (P04234 22-105 limits assumed, chain 2 of 2): as the sequence (Q95LI8 22-105 limits assumed, chain 2 of 2) above, with V5I, K15N, V20I, T32S, N33D, N34I, A64T, N74S, L83V counted along it

- Kd [1]: 0.727 µM
- koff [1]: 0.0158 s⁻¹
- kon [1]: 21700 M⁻¹ s⁻¹
- Kd [2]: 0.0759 µM
- koff [2]: 0.00631 s⁻¹
- kon [2]: 83200 M⁻¹ s⁻¹
- EC50 (read off the curve) [3]: ~0.008 µM
- EC50 (read off the curve) (human GPRC5D protein): ~0.003 µM
B1: anti-CD3/GPRC5D bispecific antibody Bi-29H6-6 (bispecific antibody)
heavy 1: QVQLVQSGAEVKKPGASVKVSCKASGYTFTTHYMYWVRQAPGQGLEWIGGINPSNEATNFNEKFKTKATLTVDKSTSTAYMELSSLRSEDTAVYYCTRVGGLSYTMDYWGQGTLVTVSSASTKGPSVFPLAPSSKSTSGGTAALGCLVKDYFPEPVTVSWNSGALTSGVHTFPAVLQSSGLYSLSSVVTVPSSSLGTQTYICNVNHKPSNTKVDKKVEPKSCDKTHTCPPCPAPEAAGGPSVFLFPPKPKDTLMISRTPEVTCVVVAVSHEDPEVKFNWYVDGVEVHNAKTKPREEQYNSTYRVVSVLTVLHQDWLNGKEYKCKVSNKALAAPIEKTISKAKGQPREPQVCTLPPSRDELTKNQVSLSCAVKGFYPSDIAVEWESNGQPENNYKTTPPVLDSDGSFFLVSKLTVDKSRWQQGNVFSCSVMHEALHNHYTQKSLSLSPGK
heavy 2: not shown
light: not shown
notes: G56E variant of the 29H6 VH; also called anti-GPRC5D/CD3 bifunctional antibody Bi-29H6-6
